Measurements published in patent US20250304640A1 (ORIKINE BIO SL, published 2025).
Positions count from the first letter of the chain named. Names and notes keep the numbering of the source.

T1: IL-10 receptor (IL-10R: IL10RA and IL10RB) on HEK-Blue IL-10 reporter cells (UniProt Q13651 22-578; Q08334 20-325, limits assumed)
T1 sequence (looked up) 1: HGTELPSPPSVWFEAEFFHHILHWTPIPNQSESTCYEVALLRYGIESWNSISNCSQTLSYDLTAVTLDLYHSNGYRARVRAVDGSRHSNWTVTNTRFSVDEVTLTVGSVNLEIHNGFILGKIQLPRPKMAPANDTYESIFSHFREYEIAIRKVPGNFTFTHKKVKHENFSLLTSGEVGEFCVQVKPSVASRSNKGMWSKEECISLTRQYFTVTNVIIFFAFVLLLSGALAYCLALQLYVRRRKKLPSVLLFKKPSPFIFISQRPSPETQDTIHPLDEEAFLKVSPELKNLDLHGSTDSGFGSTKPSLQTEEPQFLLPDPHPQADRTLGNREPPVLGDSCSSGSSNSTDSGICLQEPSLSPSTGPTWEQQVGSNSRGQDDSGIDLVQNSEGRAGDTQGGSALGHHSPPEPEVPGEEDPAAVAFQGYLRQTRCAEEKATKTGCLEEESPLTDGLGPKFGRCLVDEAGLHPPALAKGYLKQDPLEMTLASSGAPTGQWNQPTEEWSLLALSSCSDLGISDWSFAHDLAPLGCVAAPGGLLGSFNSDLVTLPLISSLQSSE
T1 sequence (looked up) 2: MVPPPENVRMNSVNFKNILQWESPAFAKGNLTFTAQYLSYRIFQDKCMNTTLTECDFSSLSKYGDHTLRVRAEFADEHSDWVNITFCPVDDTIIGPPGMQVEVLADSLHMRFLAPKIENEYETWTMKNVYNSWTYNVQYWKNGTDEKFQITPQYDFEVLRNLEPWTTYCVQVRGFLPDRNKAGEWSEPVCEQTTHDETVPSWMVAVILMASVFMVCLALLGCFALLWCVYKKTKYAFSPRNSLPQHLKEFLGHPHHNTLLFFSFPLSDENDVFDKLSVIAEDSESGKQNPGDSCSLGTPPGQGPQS

T2: IL10RA (UniProt Q13651 22-578, limits assumed)
T2 sequence (looked up): T1 sequence (looked up) 1

B1: CSF1 (wild-type human CSF1) (ligand)
chain: EEVSEYCSHMIGSGHLQSLQRLIDSQMETSCQITFEFVDQEQLKDPVCYLKKAFLLVQDIMEDTMRFRDNTPNAIAIVQLQELSLRLKSCFTKDYEEHDKACVRTFYETPLQLLEKVKNVFNETKNLLDKDWNIFSKNCNNSFAECSSQD
B2: CSF1 V120I (ligand)
chain: B1 chain with V120I
B3: CSF1 H9F (ligand)
chain: B1 chain with H9F
B4: CSF1 E82K (ligand)
chain: B1 chain with E82K
B5: CSF1 V78W (ligand)
chain: B1 chain with V78W
B6: CSF1 S18Q (ligand)
chain: B1 chain with S18Q
B7: CSF1 Q79L (ligand)
chain: B1 chain with Q79L
B8: CSF1 A76I, V117L (ligand)
chain: B1 chain with A76I, V117L
B9: CSF1 Q17R (ligand)
chain: B1 chain with Q17R
B10: CSF1 Q81F (ligand)
chain: B1 chain with Q81F
B11: CSF1 V117I (ligand)
chain: B1 chain with V117I
B12: CSF1 (1-190) HiBiT (ligand)
chain: EEVSEYCSHMIGSGHLQSLQRLIDSQMETSCQITFEFVDQEQLKDPVCYLKKAFLLVQDIMEDTMRFRDNTPNAIAIVQLQELSLRLKSCFTKDYEEHDKACVRTFYETPLQLLEKVKNVFNETKNLLDKDWNIFSKNCNNSFAECSSQDGGVSGWRLFKKIS
B13: IL-10WT (wild-type human IL-10) (ligand)
chain: SPGQGTQSENSCTHFPGNLPNMLRDLRDAFSRVKTFFQMKDQLDNLLLKESLLEDFKGYLGCQALSEMIQFYLEEVMPQAENQDPDIKAHVNSLGENLKTLRLRLRRCHRFLPCENKSKAVEQVKNAFNKLQEKGIYKAMSEFDIFINYIEAYMTMKIRN
B14: ORK10-002 (ligand)
chain: MTQSENSCTHFPGNLPNMLRDLRDAFSRVKTFFQMKDQLDNLLLKESLLEDFKGYLGCQALSEMIQFYLEEVMPQAENQDPDIKAHVNSLGENLKTLRLRLRRCHRFLPCENKSKAVEQVKNAFNKLQEKGIYKAMSEFDIFINYIEAYMTMNFGGLDYLPNMLRDLRDAFSRVKTFFQMKDQLDNLLLKESLLEDFKGYLGCQALSEMIQFYLEEVMPQAENQDPDIKAHVNSLGENLKTLRLRLRRCHRFLPCENKSKAVEQVKNAFNKLQEKGIYKAMSEFDIFINYIEAYMTM
B15: Foldikine10 (ligand)
chain: MTQSENSCTHFPGNLPNMLRDLRDAFSRVKTFFQMKDQLDNLLLKESLLEDFKGYLGCQALSEMIQFYLEEVMPQAENQEPDIKAHVNSLGENLKTLRLRLRRCHRFLPCENKSKAVEQVKNAFNKLQEKGIYKAMSEFDIFINYIEAYMTMNNGGLDYLPNMLRDLRDAFSRVKTFFQMKDQLDNLLLKESLLEDFKGYLGCQALSEMIQFYLEEVMPQAENQDPDIKAHVNSLGENLKTLRLRLRRNHRFLPCENKSKAVEQVKNAFNKLQEKGIYKAMSEFDIFINYIEAYMTMKIRN
B16: ORK10-003-HiBit R24A (ligand)
chain: MTQSENSCTHFPGNLPNMLRDLRDAFSRVKTFFQMKDQLDNLLLKESLLEDFKGYLGCQALSEMIQFYLEEVMPQAENQDPDIKAHVNSLGENLKTLRLRLRRCHRFLPCENKSKAVEQVKNAFNKLQEKGIYKAMSEFDIFINYIEAYLYKTITPEFANMLADLRDAFSRVKTFFQMKDQLDNLLLKESLLEDFKGYLGCQALSEMIQFYLEEVMPQAENQDPDIKAHVNSLGENLKTLRLRLRRCHRFLPCENKSKAVEQVKNAFNKLQEKGIYKAMSEFDIFINYIEAYMTMGGVSGWRLFKKIS
B17: ORK10-003-HiBit K34A (ligand)
chain: B16 chain with A163R, K173A
B18: ORK10-003-HiBit E50A (ligand)
chain: B16 chain with A163R, E189A
B19: ORK10-003-HiBit Q38A (ligand)
chain: B16 chain with A163R, Q177A
B20: ORK10-003-HiBit D44A (ligand)
chain: B16 chain with A163R, D183A
B21: ORK10-003-HiBit D44N (ligand)
chain: B16 chain with A163R, D183N
B22: CSF1-25AA-IL10-HiBit (ligand)
chain: EEVSEYCSHMIGSGHLQSLQRLIDSQMETSCQITFEFVDQEQLKDPVCYLKKAFLLVQDIMEDTMRFRDNTPNAIAIVQLQELSLRLKSCFTKDYEEHDKACVRTFYETPLQLLEKVKNVFNETKNLLDKDWNIFSKNCNNSFAECSSQDGGGSGGSGGSGGSGGSGGSGGSGGGRASPGQGTQSENSCTHFPGNLPNMLRDLRDAFSRVKTFFQMKDQLDNLLLKESLLEDFKGYLGCQALSEMIQFYLEEVMPQAENQDPDIKAHVNSLGENLKTLRLRLRRCHRFLPCENKSKAVEQVKNAFNKLQEKGIYKAMSEFDIFINYIEAYMTMKIRNGGVSGWRLFKKIS

These binders were tested against CSF1 receptor (CSF1R) (UniProt P07333) (assay: cell-based or functional assay).
Sequence of CSF1 receptor (CSF1R) (P07333 20-972 limits assumed): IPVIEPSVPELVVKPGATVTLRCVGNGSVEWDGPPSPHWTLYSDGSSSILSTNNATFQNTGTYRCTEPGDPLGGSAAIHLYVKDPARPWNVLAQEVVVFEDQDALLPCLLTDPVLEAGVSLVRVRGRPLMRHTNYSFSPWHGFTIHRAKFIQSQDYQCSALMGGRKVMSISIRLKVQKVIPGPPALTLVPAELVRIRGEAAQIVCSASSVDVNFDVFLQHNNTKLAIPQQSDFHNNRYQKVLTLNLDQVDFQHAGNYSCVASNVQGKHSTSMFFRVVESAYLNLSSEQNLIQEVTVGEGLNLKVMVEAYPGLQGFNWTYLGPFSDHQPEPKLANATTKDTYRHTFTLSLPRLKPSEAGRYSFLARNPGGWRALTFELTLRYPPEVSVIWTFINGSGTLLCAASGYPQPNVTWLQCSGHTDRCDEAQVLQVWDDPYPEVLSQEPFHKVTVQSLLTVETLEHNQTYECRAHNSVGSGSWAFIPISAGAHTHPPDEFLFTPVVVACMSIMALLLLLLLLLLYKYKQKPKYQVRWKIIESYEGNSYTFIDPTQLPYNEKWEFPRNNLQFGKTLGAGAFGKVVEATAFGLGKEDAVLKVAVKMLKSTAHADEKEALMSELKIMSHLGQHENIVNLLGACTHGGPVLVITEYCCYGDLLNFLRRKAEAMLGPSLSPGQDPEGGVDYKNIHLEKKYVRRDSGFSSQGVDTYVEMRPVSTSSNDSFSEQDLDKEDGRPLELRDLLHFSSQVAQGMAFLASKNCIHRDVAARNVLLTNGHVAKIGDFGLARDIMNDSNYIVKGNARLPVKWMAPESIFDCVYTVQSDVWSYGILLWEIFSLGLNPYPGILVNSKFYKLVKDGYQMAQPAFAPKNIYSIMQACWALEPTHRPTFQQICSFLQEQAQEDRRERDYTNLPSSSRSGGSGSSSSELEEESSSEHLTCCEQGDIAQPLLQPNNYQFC

CSF1 EC-50, HEK293 CSF1R/SRE reporter	EC50, HEK293 CSF1R/SRE reporter, biological replica 1	EC50, HEK293 CSF1R/SRE reporter, biological replica 2	EC-50, HEK293 CSF1R/SRE reporter, biological replica 1	EC-50, HEK293 CSF1R/SRE reporter, biological replica 2	Max activation value, HEK293 CSF1R/SRE reporter, biological replica 1	Max activation value, HEK293 CSF1R/SRE reporter, biological replica 2	EC-50, HEK293 CSF1R/SRE reporter	Binder
7.34e-10	1.88e-09	5.58e-09	4.52e-10	3.37e-10	8.49	1.14		B1
			8.8e-10	4.43e-10	8.86	1.37		B2
	2.66e-09	1.18e-08						B3
	1.27e-08	2.49e-08						B4
	6.23e-09	2.1e-08						B5
	2.51e-09	1.99e-08						B6
	6.76e-09	1.28e-08						B7
			1.18e-09	5.97e-10	8.55	1.14		B8
	2.7e-09	7.94e-09						B9
	1.08e-08	6.77e-08						B10
			1e-09	4.37e-10	7.64	1.28		B11
							1.45e-09	B12

What follows are binders tested against T1, IL-10 receptor (IL-10R: IL10RA and …) (assay: cell-based or functional assay).

EC-50, HEK-Blue IL-10 reporter cells	Binder
8.91e-10	B13
3.87e-10	B14
6.01e-10	B15

These binders were tested against T2, IL10RA (assay: cell-based or functional assay).

EC-50, HEK-Blue IL-10 reporter cells	Binder
1.51e-10	B16
9.22e-10	B17
5.43e-11	B18
2.07e-10	B19
2.01e-09	B20
4.37e-10	B21

Biological target: T1, IL-10 receptor (IL-10R: IL10RA and …)
Assay: cell-based or functional assay
Remark: another data set of the same source

EC-50 for IL10 activity, HEK-Blue IL-10 reporter cells	Binder
4.1e-10	B22
